# Laboratory results from the nanobody polyreactivity screen of Harvey et al. (2022).
# Test: yeast display, Sf9 membrane polyspecificity reagent, FACS + sequencing; frameworks hold sequencing errors
# Outline: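 Galactose induction of a Saccharomyces cerevisiae BJ5465 synthetic nanobody display library ran 36–48 hours. The cells were then stained for 1 hour at 4 °C with 10% biotinylated, detergent-solubilized Sf9 membrane reagent, pulled down on streptavidin microbeads and FACS-sorted into low and high (top ~1%) gates on expression and reagent-binding fluorescence. Labels for polyreactivity follow the gate of origin.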
row,Sequence,polyreactivity (PSR sort gate)
1,QVQLVESGGGLVQAGGSLRLSCAASGSTFSIYAMGWYRQAPGKERELVAAISSDSTYYADSVKGRFTISRDNAKNSVYLQMNSLKPEDTAVYYCAADPYFPKYYYWGQGTQVTVSS,low polyreactivity
2,QVQLVESGGGLVQAGGSLRLSCAASGFTFLRNAMGWYRQAPGKERELVAAINRDGGRTYYADSVKGRFTISRDNAKNTVYLQMNSLKPADTAVYYCATTSQATSGPRRKLYYYWGQGTQVTVSS,high polyreactivity
3,QVQHVESGGGLVQAGGSLRLSCAASGSTFRRYAMGWYRQAPGKERELVASITYRGGSTYYADSVKGRFTISRDNAKNTVYLQKNSLKPEDTAVYYCSKKGVYGPLIEYWAQGTQVTVSS,high polyreactivity
4,QVQLVESGGGLDQARGSLRLSCAASGRIFELYAMGWYRQAPGKERELVAAITSSGGTTYYADSVKGRFTISRDNAKNTVYLQMNSLKPEDTAVYYCNTVYATRYDYWGQGTQVTVSS,high polyreactivity
5,QVQLVESGGGLVQAGGCLRLSCAGSRSTFHYYTMGWYRQAPGKERELVAAISWRGTSTYYADSVKGRFTISRDNAKNTLYVQMNSLKPEDTGVYYCAVRSSPGAGYYYWGQGTQGTVSS,high polyreactivity
6,QDQLVESGGGLVQAGGSLRLSCAASGRIFSIYAMGWYRQAPGKERELVAAITRGGRTIYADSVKGRFTISRDNAKNTVYLQMNSLKPEDTAVYYCAARRIDGVVKPYDYWGQGTQVTVSS,low polyreactivity
7,QVQLVESGGGLVQAGGSLRLSCAASGSIFKANAMGWYRQAPGKESELVATITSSGTRTYYADSVKGRFTISRDNAKNTVYLQMNSLKPEDTAVYYCNARAYPYQRGRYGYWGQGTQVTVSS,high polyreactivity
8,QVQLVESGGGLVQAGGILRLSCAASGRIIQRYAMGWYRQAPGKERELVAAISSSGVSTYYADSVKGRFTISRDNAKNTVYLQMNSLKPEDTAVYYCNAVSSRVYRDYGYDYWGQGTQVTVSS,low polyreactivity
9,QVQLVESGGGLVQAGGSLRLSCAASGRIIPYYAMGWYRQAPGKERELVAAISSSGGRTYYADSVKGRFTISRDNAKNTVYLQMNSLKPEDTAVYYCAAGFPTFGWDKVRFIMYYWGQGTQVTVSS,high polyreactivity
10,QVQLVESGGGLVQAGGILRLSCAASGRTLYHYVMGWYRQAPGKERELVAAISSGGSTYYADSVKGRFTISRDNAKNTVYLQMNSLKPEDTEVYYCAAGRRGDWGQGTQVTVSS,high polyreactivity
11,QVQLVESGGGLVQAGGSLRLSCAASGLIFFWYTMGWYRKAPGKERELVAAIDSGGSTYYADSVKGRFTISRDNAKNTVYLQMNSLKPEDTAVYYCNADPGWGIYDDYWVQGTQVTVSS,high polyreactivity
12,QVQLVESGGGLVQAGASLRLSCAASGRTFAWYAMGWYRQAPGKERELVAAISSGGSTYYADSVKGRFTISRDNAKISVYLQMNSLKPEDTAVYDCAAEWHYIYAYDYWGQGTKVTVSS,low polyreactivity
13,QVQLVESGGGLVQAGGSLRISCAASGFIFTLYAMGWYRQAPGKERELVAAISKRGGSTNYADSVKGRFTISRDNAKNTVYLLMNSLKPEDTAVYYCANARPGFLYDHWGQGTQLTVSS,high polyreactivity
14,QVQLVESGGGLVQAGGSLRLSCAASGFTSWHNDMGRYRQATGKERELVAAIDTGTGTYYADSVKGRFTISRDNAKNTVYLQLYSLKPEDTAVYYCAKDDLLVVRIVWFDYWGLGTQVTVSS,low polyreactivity
15,QVQLVESGGGLVQAGGSLRLSCAASGSNFGWYAMGWYRQAPGKERELVAAITFSSVSTYYADSEKGRFTISRDNAKNTVYLQMNSLKPEDTAVYYCAAVVYYTFDYWGLGTQVTVSS,low polyreactivity
16,QVQLVESRGGLVQAGGSLRLSCAASGFTIDTYAMGWYRQAPGKERELVAGISWSGGSTYYADSVKGRFTISRDNAKNTVYLQMNSLKPEDTAVYYCNARDYSVGRYDYWGQGTQVTVSS,low polyreactivity
17,QVQLVESGGGLFQAGGSLRLSCAASGSIINIYAMGWYRQAPGKERELVATITGIADSTYYADSVKGRFTISRDNAKNTVYLQMNSLKPEDTAVYYCAADKYVADYDYWGQGSQVTVSS,low polyreactivity
18,QVQHVESGGGLDQAGGSLRLSCAASGFIFYDYMGWDRQAPGKQRELVAVISYSGSSTNYAYSVKGRFTITRDNAKMTVYLQINSLKPEDTAVYYWAARIVNGWDYDFWGQGSQVTVSS,low polyreactivity
19,QVQLVESGGGLVQAGGSLRLSCAASGFTVGVYAMGWYRQAPGKERELVAAISSGGSTNYADSVKGRFTISRDNAKNTVYLQMNSLKPEDTAVYYCAKDVWYLVYYHWKSNRVWQYDYWGQGTQVTVSS,low polyreactivity
20,QVQLVESGGGLVQAGGSLRLSCAASGSIFLPYAMGWYRQAPGKEREFVAAIRWSTGRTFYADSVKGRVTISRDNAKNTVYLQMNSLKPEDTAVYYCAAKYYDSWYTYRYDYWGQGTQVTVSS,high polyreactivity
21,QVQLVESGGGLVQAGGSLRLSCAASGSIFYPYAMGWYRQAPGKERELVASITINDGSTYYADSVKGRFTISRDNAKNTVYLQMNSLKTEDTSVYYCNVEPVPGFGSEYEYWGQGTQVTVSS,low polyreactivity
22,QVQLVESGGGLVQAGGSLRLSCAASGNTFEYNAMGWYRQAPGKEREFVAAIDFSDGSTYYADSVKGRFTISRDNAKNTVYLQMNSLKPEDTAVYYCAGDYYSYFGNYYYWGQGTQVTVSS,high polyreactivity

row,Sequence,polyreactivity (PSR sort gate)
1,QVQLVESGGGLVQAGGSLRLSCAASGNIFESYGMGWYRQAPGKERELVATINTSSGSTYYADSVKGRFTISRDNAKNTVYLQMNSLKPEDTAVYYCAARFDSFWVEYDYWGQGTQVTVSS,low polyreactivity
2,QVQLVESGGGLVQAGGSLRLSCAASGLIFPVYDMAWYRQAPGKERELVAAITRSGDSTYYADSVKGRFTISRDNAKNTVYLQMNSLKPEDSGVYYCAAQPGTASYAGDGDSWGKGTQVTVSS,low polyreactivity
3,QFQLVESGGGLVQAGGSLRLSCASSGIIFKRYAMGWYRQAPGNERELVAAISTSGSTYYADSVKGRFTISRDNAKNTVYLQMNSLKPEDTAVYYCAAGRWWRYFTWHGYWGQGTQVTVSS,high polyreactivity
4,QVQLVESVGGLVQAGGSLRLSCAASGRTIVSNAMGWYRQAPGKERELVAAITRGSRTYYADSVKGRFTISRDNAKNTVYLQMNSLKPEDTAVYYCNARHVRYPFTGNYWGQGTQVTVSS,high polyreactivity
5,QVQLVESGGGLLQAGGSLRLSCADSGSILYTNAMGWYRQAPGKERELVAASTTSGASTIYADSVKGRFTISRENAKNTVYLQLNSLKPEDTAVYYCAAPSRYRYYLGNYWGQGTQVTVSS,high polyreactivity
6,QVQLVESGGGLVQAGGSLRLSCAASGSTQRGYARGWYRQAPGKERELVASISRRGGSTYYADSVKGRFTISRDNAKNTVYLQMNSLKPEDTAVDYCAATGRRGYGYGYWGQGTQVTVSS,high polyreactivity
7,QVKLVESGGGLVQAGGSLRLSCPASGSTFVLNAMGWYRQAPGKERELVAAITWSGASTYYADSVKGRFTISRDNAKNTVYLQMNSLKPEDTAVYYCANDIPTDYKDVNYWGQGTQVTVSS,low polyreactivity
8,QVQLVESGGGLVEAGGSLRLSCAASGGTFKLYAMGWYRPAPGKERELVAAISRRGGSTYYADSVKGRFTISRDNAKNTVYLQMNSLKPDDTALSNCAAPGPTQSTQRGGYWGQGTQVTVSS,high polyreactivity
9,QVQLVESGGGLVQAGGSLRLSCAASGRTFLGYAMGWYRQAPGKERELVAAISSSGGRTYYADSVKGRFTISRDNAKNTVYLQMNSLKPEDTAVYYCNAPRIVLCGYEYWGQGTQVTVSS,high polyreactivity
10,QVHLVESGGGLVQAGGSLRLSCAASGSTFKRNAMGWYRQAPGKERELVAAITQRGGRTYYADSVKGRFTISRDNAKNTVYLQMNSLKPEDTAVYYCAVDSQTANDYDYWGQGTEVTVSS,low polyreactivity
11,QVQLVESGGGLVQAGGSLRLSCAASGRIFVKYVMGWYRQAPGKERELVAAISSSGGRTYYADSVKGRFTISRDNAKNTVYLPMNSLKPEDTAVYYCNAVRRRSSLKLDSWGQGTQVTVSS,high polyreactivity
12,QVQLVESGGGLVQAGGNLLLSCAASGFNFVDYAMGWSRQAPGKERELVASIDRSDGSTYYADSVKGRFTFSRDNAKNTVYLLMNSLKPEDTAVYYCAAADQLYSISTGDYWGQGTQVTVSL,low polyreactivity
13,QVQLVESGGGLVHAGGSHRLSCAASGLIFRRNPMGWYRQAPGKERELVAAISRTGGSTYYADSVKGSFTISRDNAKNTFYLQMNSMKPEYTAVYYCASDNRDYDYTYEYWGQGTQVTVSS,low polyreactivity
14,QVQLVESGGCLVQAGGSLRLSCAASGRIFFYYTLGWYRQAPGKERELVAAINSTGSTNYADSVKGRFTISRDNAKNTVYLQMKSLKPEDTAVYYCNAGTRYIFLYPPFLGAAFDYWGQGTQVTVSS,low polyreactivity
15,QVQLVESGGGLVQAGGSLRLSCAASGRIISVYAMGWYRQAPGKERELVATITGGNTNYADSVKGRFTISRDNAKNTVYLQMNSLKPEDTAVYYCANQFLPSGVYYEYDSWGQGTQVTVSS,low polyreactivity
16,QVQLVESGGGLVQAGGSLRLSCAASGRIFVYNAMGWYRQAPGKEREFVAAISWDGASTYYADSVKGRFTISRDNAKNTVYLQMNSLKPEDTAVYYCAASYRRKLNYDYWGQGTQVTVSS,low polyreactivity
17,QVQLVESGGGLVQAGGSLRLSCAASVSIFGSNAMRWYRQAPGKERELVAVITNGGRTYYADSVKGRFTISRDNAKNTVFLQMNSLKPEDTAVYYCAASRVYGWYGSYSTYGSWGQGTQVTVSS,high polyreactivity
18,QVQLVESGGGLVQAGGSLRLSCAASGSTYYTYAMGWYRQAPGKERELVAAISWSGGTTYYADSVKGRFTISRDNAKNTVSLQMNSLKPEATAVYYCASDRDGILKANVYWGQCTQVTVSS,low polyreactivity
19,QVQLVESGGGLVQAGGSLRLTCAASGRIFSANAMGWYRLAPGKERELVAGIDSGGSTNYADSVKGRFTISGDNAKNTVYLQMNSLKPEDTAVYYCAKYRGRGNTYNGGYDYWGQVTQVTVSS,low polyreactivity
20,QVQIVESGGGLVQAGGSLRLSCAASGSIFQGYAMGWYRQAPGKERELVAAITNRGGNTYYADSVKGRFTISRDNAKYSVYLQMNSLKPEDTAVYYCAADPRYSHSFSGYYDYWGQGTQVTVSS,high polyreactivity
21,QVQLVESGVGLVQAGGSLRLSCAASGLILANYAMGWYRQAPGKERELVAAISSSGGSTYYADSVKGRFTISRDNAKNTVYLQMNSLKPEDTAVYYCAAYPLYRRRWTGDYWGQGTQVTVSS,high polyreactivity
